These results are taken from article PMC2933578, “Mutational analysis of an archaeal minichromosome maintenance protein exterior hairpin reveals critical residues for helicase activity and DNA binding” (BMC Molecular Biology, 2010).

Series [1] concerns the target ssoMCM mutant M7 (ED327AA) (Sulfolobus solfataricus) (UniProt Q9UXG1). Put plainly: SEC; Superose 6 size exclusion column, 250 mM NaCl; ~0.5 mg of protein; markers ferritin (440 kD) and aldolase (158 kD); self-association to the hexamer.
Substrate in series [2]: Nc1ncnc2c1ncn2[C@@H]1O[C@H](COP(=O)(O)OP(=O)(O)OP(=O)(O)O)[C@@H](O)[C@H]1O
Kind of series: EnzChek phosphate release ATPase assay. The format is biochemical, Saccharolobus solfataricus. The following applies: no DNA, per monomeric MCM subunit, unit nM. An excerpt: EnzChek phosphate release ATPase assay on ssoMCM

Series [3] deals with the molecule itself. Kind of series: SEC; Superose 6 size exclusion column, 250 mM NaCl; ~0.5 mg of protein; markers ferritin (440 kD) and aldolase (158 kD); self-association to the hexamer.

The molecule “ssoMCM mutant M7 (ED327AA) (from UniProt Q9UXG1 1-686) (enzyme)” gave a stoichiometry N in series [1] of 6.

B1: ssoMCM mutant M3 (L325A) (enzyme, Sulfolobus solfataricus, UniProt Q9UXG1 1-686, looked up)
chain: MEIPSKQIDYRDVFIEFLTTFKGNNNQNKYIERINELVAYRKKSLIIEFSDVLSFNENLAYEIINNTKIILPILEGALYDHILQLDPTYQRDIEKVHVRIVGIPRVIELRKIRSTDIGKLITIDGILVKVTPVKERIYKATYKHIHPDCMQEFEWPEDEEMPEVLEMPTICPKCGKPGQFRLIPEKTKLIDWQKAVIQERPEEVPSGQLPRQLEIILEDDLVDSARPGDRVKVTGILDIKQDSPVKRGSRAVFDIYMKVSSIEVSQKVLDEVIISEEDEKKIKDLAKDPWIRDRIISSIAPSIYGHWELKEALALALFGGVPKVAEDTRIRGDIHILIIGDPGTAKSQMLQFISRVAPRAVYTTGKGSTAAGLTAAVVREKGTGEYYLEAGALVLADGGIAVIDEIDKMRDEDRVAIHEAMEQQTVSIAKAGIVAKLNARAAVIAAGNPKFGRYISERPVSDNINLPPTILSRFDLIFILKDQPGEQDRELANYILDVHSGKSTKNIIDIDTLRKYIAYARKYVTPKITSEAKNLITDFFVEMRKKSSETPDSPILITPRQLEALIRISEAYAKMALKAEVTREDAERAINIMRLFLESVGVDMESGKIDIDTIMTGKPKSAREKMMKIIEIIDSLAVSSECAKVKDILKEAQQVGIEKSNIEKLLTDMRKSGIIYEAKPECYKKV
notes: MCM of Sulfolobus solfataricus with L325A; source: cloned and purified (Resource Q anion exchange, size-exclusion chromatography) as described previously [15]
B1: in series [2] (mutant M3), the Michaelis-Menten constant (Km) turned out to be 270 ± 40 nM and the kcat amounted to 0.0783 ± 0.005 s⁻¹. The “stoichiometry N” value in series [3] was 6.

B2: ssoMCM mutant M4 (VL324AA) (enzyme, Sulfolobus solfataricus, UniProt Q9UXG1 1-686, looked up)
chain: MEIPSKQIDYRDVFIEFLTTFKGNNNQNKYIERINELVAYRKKSLIIEFSDVLSFNENLAYEIINNTKIILPILEGALYDHILQLDPTYQRDIEKVHVRIVGIPRVIELRKIRSTDIGKLITIDGILVKVTPVKERIYKATYKHIHPDCMQEFEWPEDEEMPEVLEMPTICPKCGKPGQFRLIPEKTKLIDWQKAVIQERPEEVPSGQLPRQLEIILEDDLVDSARPGDRVKVTGILDIKQDSPVKRGSRAVFDIYMKVSSIEVSQKVLDEVIISEEDEKKIKDLAKDPWIRDRIISSIAPSIYGHWELKEALALALFGGVPKAAEDTRIRGDIHILIIGDPGTAKSQMLQFISRVAPRAVYTTGKGSTAAGLTAAVVREKGTGEYYLEAGALVLADGGIAVIDEIDKMRDEDRVAIHEAMEQQTVSIAKAGIVAKLNARAAVIAAGNPKFGRYISERPVSDNINLPPTILSRFDLIFILKDQPGEQDRELANYILDVHSGKSTKNIIDIDTLRKYIAYARKYVTPKITSEAKNLITDFFVEMRKKSSETPDSPILITPRQLEALIRISEAYAKMALKAEVTREDAERAINIMRLFLESVGVDMESGKIDIDTIMTGKPKSAREKMMKIIEIIDSLAVSSECAKVKDILKEAQQVGIEKSNIEKLLTDMRKSGIIYEAKPECYKKV
notes: MCM of Sulfolobus solfataricus with the double mutation VL324AA (V324 and L325 to alanine); source: cloned and purified (Resource Q anion exchange, size-exclusion chromatography) as described previously [15]
Consider B2, for which, in series [2] (mutant M4, printed VL324AA), the Km is recorded as 230 ± 10 nM and the kcat stood at 0.065 ± 0.00167 s⁻¹. In addition, the “stoichiometry N” value in series [3] worked out at 6.
